Measurements from patent US12157773 (SYNTHEKINE, dated 2024).

T1: mIL27Rα ECD antigen (mouse, UniProt O70394 25-510)
T1 construct: Antigen of biopanning and PE-ELISA; The immunogen was made as a fusion of the ECD (residues 25-510 of the precursor) with the human IgG1 hinge and Fc; also called ECD of mouse IL27Rα; IL27Rα coated on the plate
T1 sequence: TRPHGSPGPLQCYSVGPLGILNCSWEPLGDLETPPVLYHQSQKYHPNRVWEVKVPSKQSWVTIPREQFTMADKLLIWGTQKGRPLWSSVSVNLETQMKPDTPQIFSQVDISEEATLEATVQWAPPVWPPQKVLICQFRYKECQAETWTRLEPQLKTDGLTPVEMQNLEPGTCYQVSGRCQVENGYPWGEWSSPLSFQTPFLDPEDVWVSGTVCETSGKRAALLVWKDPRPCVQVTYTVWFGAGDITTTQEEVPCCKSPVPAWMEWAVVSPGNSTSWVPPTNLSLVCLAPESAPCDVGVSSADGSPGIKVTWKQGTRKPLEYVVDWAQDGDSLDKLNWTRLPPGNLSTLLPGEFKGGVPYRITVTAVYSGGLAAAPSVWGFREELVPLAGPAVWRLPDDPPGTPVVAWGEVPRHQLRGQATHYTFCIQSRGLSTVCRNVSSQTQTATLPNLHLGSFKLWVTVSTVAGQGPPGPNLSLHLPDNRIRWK


Target: T1, mIL27Rα ECD antigen
Assay: PE-ELISA, periplasmic extract on antigen-coated plate
Procedure: Upon completion of the biopanning of Example 3, three 96-well plates of individual phage clones were isolated in order to perform periplasmic extract ELISA (PE-ELISA) on IL27Rα coated plates to identify positive VHH binders that selectively bound […]. A 96-well plate was coated with IL27Rα and PBS under the same conditions. Next, wells were blocked at 37° C. for 1 h. Then, 100 µl of extracted antibodies was added to each well and incubated for 1 h. Subsequently, 100 µl of anti-tag polyclonal antibody conjugated to HRP was added to each well and incubated at 37° C. for 1 h. Plates were developed with TMB substrate. The reaction was stopped by the addition of H2SO4. Absorbance at 450 nm was read on a microtiter plate reader. […] Positive clones were sequenced, and sequences analyzed to identify unique clonotypes.

Binder	binding result
mIL27Ra VHH5 (VHH, Camel VHH as periplasmic extract of a phage clone in the PE-ELISA; also called anti-mouse IL27Rα VHH; not shown: HA/His tag from the pMECS phagemid) VHH: QVQLQESGGGSVQAGGSLRLSCAVSGDSTYSMGWFRQPPGKEREGVAAIAKDGITIHADSVKGRFTISKDNAKNTLYLQMNSLKPEDTAMYYCAAHRPYGPPLNPRWYTYWGQGTQVTVSS	binds
mIL27Ra VHH14 (VHH, Camel VHH as periplasmic extract of a phage clone in the PE-ELISA; also called anti-mouse IL27Rα VHH; not shown: HA/His tag from the pMECS phagemid) VHH: QVQLQESGGGSVQAGGSLRLSCAVSGDSTYSMGWFRQPPGKEREGVAAITKDGITIHADSVKGRFTISGDNAKNTLYLQMNNLKPEDTAMYYCAAHRPYGPPLNPRWYTYWGQGTQVTVSS	binds
mIL27Ra VHH9 (VHH, Camel VHH as periplasmic extract of a phage clone in the PE-ELISA; also called anti-mouse IL27Rα VHH; not shown: HA/His tag from the pMECS phagemid) VHH: QVQLQESGGGSVQAGGSLRLSCAVSGDSTYSMGWFRQPPGKEREGVAAIAKDGITIHADSVKGRFTISKDNAKNTLYLQMSSLKPEDTAMYYCAAHRPYGPPLNPRWYTYWGQGTQVTVSS	binds
mIL27Ra VHH10 (VHH, Camel VHH as periplasmic extract of a phage clone in the PE-ELISA; also called anti-mouse IL27Rα VHH; not shown: HA/His tag from the pMECS phagemid) VHH: QVQLQESGGGSVQAGGSLRLSCAVSGDSTYSMGWFRQPPGKEREGVAAIGKDGITIHADSVKGRFTISKDNAKNTLYLQMNSLKPEDTAMYYCAAHRPYGPPLNPRWYTYWGQGTQVTVSS	binds
mIL27Ra VHH8 (VHH, Camel VHH as periplasmic extract of a phage clone in the PE-ELISA; also called anti-mouse IL27Rα VHH; not shown: HA/His tag from the pMECS phagemid) VHH: QVQLQESGGGSVQAGGSLRLSCAVSGDSTYSMGWFRQPPGKEREGVAAIPTDGITIHADSVKGRFTISKDNAKNTLYLQMNSLKPEDTAMYYCAAHRPYGPPLNPRWYTYWGQGTQVTVSS	binds
mIL27Ra VHH6 (VHH, Camel VHH as periplasmic extract of a phage clone in the PE-ELISA; also called anti-mouse IL27Rα VHH; not shown: HA/His tag from the pMECS phagemid) VHH: QVQLQESGGGSVQAGGSLRLSCAASGYTYSSYCMAWFRQAPGKEREGVAAIDSDGSTSYADSVKGRFTISKDNAKNTLYLQMNSLKPEDTAMYYCAAASGRCLGPGIRSLIWGQGTQVTVSS	binds
mIL27Ra VHH7 (VHH, Camel VHH as periplasmic extract of a phage clone in the PE-ELISA; also called anti-mouse IL27Rα VHH; not shown: HA/His tag from the pMECS phagemid) VHH: QVQLQESGGGSVQAGGSLRLSCAVSGDSTYSMGWFRQPPGKEREGVAAITKDITIHADSVKGRFTISKDNAKNTLYLQMNSLKPEDTAMYYCAAHRPYGPPLNPRWYTYWGQGTQVTVSS	binds
mIL27Ra VHH11 (VHH, Camel VHH as periplasmic extract of a phage clone in the PE-ELISA; also called anti-mouse IL27Rα VHH; not shown: HA/His tag from the pMECS phagemid) VHH: QVQLQESGGGSVQAGGSLRLSCAVSGDSTYSMGWFRQPPGKEREGVAAITKDITIHADSVKGRFTISKDNAKNTLYLQMNSLRPEDTAMYYCAAHRPYGPPLNPRWYTYWGQGTQVTVSS	binds
